In test [1] the target is CCR9-RlucII (human) (UniProt P51686).
The target of a further test is CCR9 ΔCT (human) (UniProt P51686).
In test [2] the target is CCR9 C1 (CCR9-RlucII with S335A/T347A/S352A/S356A/S357A) (human) (UniProt P51686).
In test [3] the target is CCR9 C1 + C2 (CCR9-RlucII with all C-tail phosphorylation sites changed to alanine) (human) (UniProt P51686).
Test [4] addresses CCR9-RlucII (human) (UniProt P51686). The source holds these as a separate data set.

Experimental findings from PMC12147180 are described below.

Gαi-Nluc, sequence (P63096 whole entry): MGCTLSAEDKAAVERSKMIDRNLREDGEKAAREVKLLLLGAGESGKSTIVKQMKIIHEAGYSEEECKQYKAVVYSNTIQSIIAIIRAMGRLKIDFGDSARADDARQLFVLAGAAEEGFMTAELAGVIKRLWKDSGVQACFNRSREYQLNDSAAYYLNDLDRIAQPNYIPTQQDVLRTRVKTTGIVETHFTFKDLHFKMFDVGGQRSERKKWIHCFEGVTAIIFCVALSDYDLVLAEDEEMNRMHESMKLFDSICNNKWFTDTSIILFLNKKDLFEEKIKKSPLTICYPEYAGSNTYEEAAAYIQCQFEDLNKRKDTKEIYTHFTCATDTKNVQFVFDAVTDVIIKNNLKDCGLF
Gαq-Nluc, sequence (P50148 whole entry): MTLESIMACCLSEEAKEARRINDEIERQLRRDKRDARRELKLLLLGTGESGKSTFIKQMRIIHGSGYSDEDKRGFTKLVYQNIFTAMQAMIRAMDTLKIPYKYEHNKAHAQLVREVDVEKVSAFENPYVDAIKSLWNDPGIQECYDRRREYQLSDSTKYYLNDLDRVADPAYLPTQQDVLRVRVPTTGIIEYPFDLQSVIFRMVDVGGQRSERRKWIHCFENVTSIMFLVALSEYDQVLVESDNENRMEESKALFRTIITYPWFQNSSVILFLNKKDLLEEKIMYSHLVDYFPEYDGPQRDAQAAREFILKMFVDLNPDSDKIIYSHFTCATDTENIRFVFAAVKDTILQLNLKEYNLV

“Gαi-Nluc (from UniProt P63096 1-354) (natural protein)” registered a decrease in BRET between Gαi-Nluc and Gβγ-smV (G protein dissociation) in HEK293 cells with untagged CCR9, 100 nM CCL25; returns to basal levels within 10 min with CCR9-RlucII (human) [1] of 2%. In the test with CCR9 ΔCT (human), this substance had an area over the Gαi–Gβγ dissociation curve (AOC), against CCR9 WT of 6 fold; a maximal decrease in BRET between Gαi-Nluc and Gβγ-smV (G protein dissociation) in HEK293 cells, 100 nM CCL25 of 7%. In test [2], this substance returned a Gαi-Nluc/Gβγ-smV dissociation BRET (AOC) in HEK293 cells with untagged CCR9 C1, 100 nM CCL25, against CCR9 WT of 2 fold. Besides, in test [3], the Gαi-Nluc/Gβγ-smV dissociation BRET (AOC) in HEK293 cells with untagged CCR9 C1 + C2, 100 nM CCL25, against CCR9 WT was 2 fold.
In the test with CCR9 ΔCT (human), “Gαq-Nluc (from UniProt P50148 1-359) (natural protein)” yielded an area over the Gαq–Gβγ dissociation curve (AOC), against CCR9 WT of 4 fold; a maximal decrease in BRET between Gαq-Nluc and Gβγ-smV (G protein dissociation) in HEK293 cells, 100 nM CCL25 of 5%. This substance also returned a decrease in BRET between Gαq-Nluc and Gβγ-smV (G protein dissociation) in HEK293 cells with untagged CCR9, 100 nM CCL25 with CCR9-RlucII (human) [4] of 0%.
